{"source": "patent US6780986", "proteins": {"B1": {"name": "casein kinase II (CKII; New England Biolabs) (protein)", "chain 1": "MSGPVPSRARVYTDVNTHRPREYWDYESHVVEWGNQDDYQLVRKLGRGKYSEVFEAINITNNEKVVVKILKPVKKKKIKREIKILENLRGGPNIITLADIVKDPVSRTPALVFEHVNNTDFKQLYQTLTDYDIRFYMYEILKALDYCHSMGIMHRDVKPHNVMIDHEHRKLRLIDWGLAEFYHPGQEYNVRVASRYFKGPELLVDYQMYDYSLDMWSLGCMLASMIFRKEPFFHGHDNYDQLVRIAKVLGTEDLYDYIDKYNIELDPRFNDILGRHSRKRWERFVHSENQHLVSPEALDFLDKLLRYDHQSRLTAREAMEHPYFYTVVKDQARMGSSSMPGGSTPVSSANMMSGISSVPTPSPLGPLAGSPVIAAANPLGMPVPAAAGAQQ", "chain 2": "not shown"}}, "key": {"[1]": {"molecular_target": "T1, GST-Z1 (GST fused to the Z1 domain of RIP60, zinc fingers 1-5)", "T1 chain": "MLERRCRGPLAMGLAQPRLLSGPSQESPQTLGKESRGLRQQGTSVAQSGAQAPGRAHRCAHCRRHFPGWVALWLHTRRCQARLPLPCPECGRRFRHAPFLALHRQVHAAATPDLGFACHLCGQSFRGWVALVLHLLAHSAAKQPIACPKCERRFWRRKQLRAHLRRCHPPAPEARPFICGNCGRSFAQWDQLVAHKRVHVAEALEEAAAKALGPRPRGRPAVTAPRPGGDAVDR"}, "GST-Z2-P123": {"molecular_target": "T2, GST-Z2-P123", "T2 chain": "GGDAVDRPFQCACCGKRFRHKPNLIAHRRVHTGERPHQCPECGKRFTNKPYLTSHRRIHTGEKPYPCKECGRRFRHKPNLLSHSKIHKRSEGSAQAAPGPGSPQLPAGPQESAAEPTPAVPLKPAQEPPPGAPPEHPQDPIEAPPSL"}, "[2]": {"molecular_target": "T3, GST-Z3 (GST fused to the Z3 domain of RIP60, zinc fingers 9-15)", "T3 chain": "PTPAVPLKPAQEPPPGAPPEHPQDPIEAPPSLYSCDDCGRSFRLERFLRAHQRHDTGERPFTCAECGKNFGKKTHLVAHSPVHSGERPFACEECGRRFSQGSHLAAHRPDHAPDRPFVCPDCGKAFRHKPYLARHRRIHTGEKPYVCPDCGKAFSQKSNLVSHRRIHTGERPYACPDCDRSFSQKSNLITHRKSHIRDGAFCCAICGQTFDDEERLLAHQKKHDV"}, "[3]": {"molecular_target": "T4, GST-Z2 (GST fused to the Z2 domain of RIP60, zinc fingers 6-8 plus 37 amino acids of the proline rich region)", "T4 chain": "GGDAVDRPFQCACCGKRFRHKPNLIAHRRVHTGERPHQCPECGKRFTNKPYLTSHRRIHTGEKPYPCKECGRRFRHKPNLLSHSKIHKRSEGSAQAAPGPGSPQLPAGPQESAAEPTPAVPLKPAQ"}}, "data": [{"protein": "B1", "values": [{"measurement": "phosphorylation in vitro (32P-ATP, SDS gel, autoradiography)", "setting": "[1]", "value": "neither GST-Z1 nor GST-Z3 were phosphorylated to any great degree"}, {"measurement": "phosphorylation in vitro (32P-ATP, SDS gel, autoradiography)", "setting": "GST-Z2-P123", "value": "Both GST-Z2 and GST-Z2P123 were phosphorylated"}, {"measurement": "phosphorylation in vitro (32P-ATP, SDS gel, autoradiography)", "setting": "[2]", "value": "neither GST-Z1 nor GST-Z3 were phosphorylated to any great degree"}, {"measurement": "phosphorylation in vitro (32P-ATP, SDS gel, autoradiography)", "setting": "[3]", "value": "Only the GST-Z2 polypeptide, which contains the casein kinase II phosphorylation domain was phosphorylated"}, {"measurement": "phosphorylation in vitro with and without DNA (32P-ATP, SDS gel, autoradiography)", "setting": "[3]", "value": "GST-Z2 polypeptide was phosphorylated by casein kinase II in the absence of DNA. However, the extent of phosphorylation increased in the presence of the double stranded DRS oligo, the linearized plasmid pCH127 and the supercoiled pCH127"}]}]}
